{"source": "patent US20110002929A1", "about": "(Ablynx, published 2011)", "key": {"human RANK-L [1]": {"biological_target": "T1, human RANK-L (human, UniProt O14788 140-317, limits assumed)", "T1 construct": "Soluble protein, used coated, biotinylated or labelled in ELISA, AlphaScreen, FMAT and Biacore; also called hRANK-L; soluble human RANK-L", "T1 sequence (looked up)": "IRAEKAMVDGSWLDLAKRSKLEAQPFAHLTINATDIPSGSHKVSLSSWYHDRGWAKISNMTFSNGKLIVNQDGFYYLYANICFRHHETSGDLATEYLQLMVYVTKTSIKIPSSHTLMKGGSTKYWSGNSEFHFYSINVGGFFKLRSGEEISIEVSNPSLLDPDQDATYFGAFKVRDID", "assay": "FMAT, ALEXA647-hRANK-L / RANK on HEK293T cells"}, "human RANK-L [2]": {"biological_target": "T1, human RANK-L", "assay": "cell-based or functional assay"}, "[3]": {"biological_target": "T2, human RANK-L, full length, membrane-bound, expressed on HEK293T cells (human, UniProt O14788 1-317)", "T2 construct": "whole, on cells; also called hRANK-L", "T2 sequence (looked up)": "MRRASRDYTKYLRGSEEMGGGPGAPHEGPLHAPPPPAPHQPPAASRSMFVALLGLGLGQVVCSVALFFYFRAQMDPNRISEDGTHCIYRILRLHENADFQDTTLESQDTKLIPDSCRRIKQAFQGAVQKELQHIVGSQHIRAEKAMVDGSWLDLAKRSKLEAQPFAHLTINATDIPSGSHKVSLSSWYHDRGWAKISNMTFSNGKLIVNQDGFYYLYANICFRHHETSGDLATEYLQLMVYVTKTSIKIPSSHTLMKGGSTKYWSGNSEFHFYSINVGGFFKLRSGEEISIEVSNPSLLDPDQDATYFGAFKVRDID", "assay": "FACS, HEK293T with human RANK-L, 2000 pM Nanobody", "experimental": "(§1) Human embryonic kidney cells (HEK293T) were grown in Dulbecco's modified Eagles's medium supplemented with 10% fetal bovine serum (FBS), […] L-glutamine, 0.4 mM sodium pyruvate. […] After 48 hours, transfected cells were subjected to FACS analysis. […] Then cells were washed three times with FACS buffer. Bound Nanobodies were detected by subsequent incubations of a primary mouse anti Myc antibody (30 min at 4° C. (2 μg/ml)) and a second incubation with goat anti mouse-Phycoerythrin (PE) (Jackson Laboratories) for another 30 min at 4° C. Finally, after washing, the cells were resuspended in PBS+10% FBS+TO-PRO®-3 (5 nM) (Molecular Probes®, Invitrogen, Merelbeke, Belgium) and cell surface fluorescence expressed as mean PE fluorescence, was measured using flow cytometry."}, "[4]": {"biological_target": "T2, human RANK-L, full length, …", "assay": "FACS, HEK293T with human RANK-L, 400 pM Nanobody", "experimental": "as §1"}, "human RANK-L [5]": {"biological_target": "T1, human RANK-L", "assay": "AlphaScreen, biotin-hRANK-L / RANK-huFc beads"}, "human RANK-L [6]": {"biological_target": "T1, human RANK-L", "assay": "FMAT, ALEXA647-hRANK-L / RANK on HEK293T cells", "experimental": "HEK293T cells were transiently transfected with the plasmid expressing full length RANK using Fugene6 as described in example 3. After 24 hours aliquots of 60 μl (7.5×10³ cells) were plated into FMAT system 384-well plates (PE Biosystems, CA, US) and allowed to adhere for 24 h. After overnight adherence, culture supernatant was removed by gently tapping the plate. […] The plates were scanned after 10 hours of incubation. Cell surface fluorescence was measured by 8200 Cellular Detection System (Applied Biosystems, Foster City, Calif., US) which is a fluorescence macro-confocal, biological binding event analyzer that enables mix-and-read assays with live cells.", "remark": "listed apart in the source"}, "human RANK-L [7]": {"biological_target": "T1, human RANK-L", "assay": "SPR Biacore 3000, hRANK-L on CM5, 100 nM Nanobody; only indicative (one concentration)", "experimental": "Binding kinetics of the humanized versions of Nanobodu RANL13 were also analysed by Surface Plasmon Resonance (Biacore 3000). […] Nanobody binding was assessed at one concentration (100 nM). Each Nanobody was injected for 4 minutes at a flow rate of 45 μl/min to allow binding to chip-bound antigen. Next, binding buffer without Nanobody was sent over the chip at the same flow rate to allow spontaneous dissociation of bound Nanobody."}, "human RANK-L [8]": {"biological_target": "T1, human RANK-L", "assay": "AlphaScreen, biotin-hRANK-L / RANK-huFc beads", "remark": "listed apart in the source"}, "human RANK-L [9]": {"biological_target": "T1, human RANK-L", "assay": "AlphaScreen, biotin-hRANK-L / RANK-huFc beads", "remark": "listed apart in the source"}, "[10]": {"biological_target": "T2, human RANK-L, full length, …", "assay": "FACS, HEK293T with human RANK-L, 16 pM Nanobody", "experimental": "as §1"}, "human RANK-L [11]": {"biological_target": "T1, human RANK-L", "assay": "AlphaScreen, biotin-hRANK-L / RANK-huFc beads", "experimental": "To this mixture, the RANK acceptor beads and the streptavidin donor beads were added and further incubated for 1 hour at room temperature. Fluorescence was measured by reading plates on the EnVision Multilabel Plate Reader (Perkin Elmer) using an excitation wavelength of 680 nm and an emission wavelength of 520 nm.", "remark": "listed apart in the source"}, "human RANK-L [12]": {"biological_target": "T1, human RANK-L", "assay": "ELISA (ED50), biotin-hRANK-L on neutravidin", "outline": "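Nanobodies at 500 nM to 160 pM in 1% casein/PBS incubated 1 h at room temperature; binding detected via anti-myc then anti-mouse-HRP with TMB, OD 450 nm.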"}, "[13]": {"biological_target": "T2, human RANK-L, full length, …", "assay": "FACS, HEK293T with human RANK-L, 3.2 pM Nanobody", "experimental": "as §1"}}, "data": [{"binder": "RANKL18 (VHH, not shown: small tags and cut ends) VHH: EVQLVESGGGLVQAGGSLRLSCAASGRTFSRSAMGWFRQAPGKEREFVGFITGSGGTTYYGESVKGRFTISRDNAQNPVYLQMNSLKPEDTAVYYCGVYRRTYISSTYSESSEYDYWGQGTQVTVSS", "values": [{"measurement": "IC50", "setting": "human RANK-L [1]", "result": 0.253, "unit": "nM"}, {"measurement": "RANK-L induced NF-kappaB activation (luciferase reporter, HEK293T cells), IC50", "setting": "human RANK-L [2]", "result": 15.2, "unit": "nM"}, {"measurement": "PE mean fluorescence", "setting": "[3]", "result": 7630}, {"measurement": "PE mean fluorescence", "setting": "[4]", "result": 2330}, {"measurement": "IC50", "setting": "human RANK-L [5]", "result": 0.292, "unit": "nM"}, {"measurement": "IC50", "setting": "human RANK-L [6]", "result": 0.552, "unit": "nM"}, {"measurement": "Kd", "setting": "human RANK-L [7]", "result": 0.18, "unit": "nM"}, {"measurement": "kon", "setting": "human RANK-L [7]", "result": 310000, "unit": "M⁻¹ s⁻¹"}, {"measurement": "IC50", "setting": "human RANK-L [8]", "result": 0.187, "unit": "nM"}, {"measurement": "IC50", "setting": "human RANK-L [9]", "result": 0.253, "unit": "nM"}, {"measurement": "PE mean fluorescence", "setting": "[10]", "result": 218}, {"measurement": "IC50", "setting": "human RANK-L [11]", "result": 0.146, "unit": "nM"}, {"measurement": "EC50", "setting": "human RANK-L [12]", "result": 0.242, "unit": "nM"}, {"measurement": "PE mean fluorescence", "setting": "[13]", "result": 105}]}, {"binder": "RANKL13 (VHH, not shown: small tags and cut ends) VHH: EVQLVESGGGLVQAGGSLRLSCAASGRTFRSYPMGWFRQAPGKEREFVASITGSGGSTYYADSVKGRFTISRDNAKNTVYLQMNSLRPEDTAVYSCAAYIRPDTYLSRDYRKYDYWGQGTQVTVSS", "values": [{"measurement": "IC50", "setting": "human RANK-L [1]", "result": 0.264, "unit": "nM"}, {"measurement": "RANK-L induced NF-kappaB activation (luciferase reporter, HEK293T cells), IC50", "setting": "human RANK-L [2]", "result": 6.21, "unit": "nM"}, {"measurement": "PE mean fluorescence", "setting": "[3]", "result": 13900}, {"measurement": "PE mean fluorescence", "setting": "[4]", "result": 5220}, {"measurement": "IC50", "setting": "human RANK-L [5]", "result": 0.174, "unit": "nM"}, {"measurement": "IC50", "setting": "human RANK-L [6]", "result": 0.429, "unit": "nM"}, {"measurement": "Kd", "setting": "human RANK-L [7]", "result": 0.5, "unit": "nM"}, {"measurement": "kon", "setting": "human RANK-L [7]", "result": 500000, "unit": "M⁻¹ s⁻¹"}, {"measurement": "IC50", "setting": "human RANK-L [8]", "result": 0.147, "unit": "nM"}, {"measurement": "IC50", "setting": "human RANK-L [9]", "result": 0.12, "unit": "nM"}, {"measurement": "PE mean fluorescence", "setting": "[10]", "result": 499}, {"measurement": "IC50", "setting": "human RANK-L [11]", "result": 0.185, "unit": "nM"}, {"measurement": "EC50", "setting": "human RANK-L [12]", "result": 0.226, "unit": "nM"}, {"measurement": "PE mean fluorescence", "setting": "[13]", "result": 220}]}]}
